Measured values taken from publication PMC3737171, “Genetic Selection for Constitutively Trimerized Human HSF1 Mutants Identifies a Role for Coiled-Coil Motifs in DNA Binding” (G3: Genes|Genomes|Genetics, 2013).
Substitutions are numbered along the chain they refer to. Names and notes keep the numbering of the source.

B1: human HSF1 M161I, expressed in yeast (natural protein, UniProt Q00613 1-529, looked up)
chain: MDLPVGPGAAGPSNVPAFLTKLWTLVSDPDTDALICWSPSGNSFHVFDQGQFAKEVLPKYFKHNNMASFVRQLNMYGFRKVVHIEQGGLVKPERDDTEFQHPCFLRGQEQLLENIKRKVTSVSTLKSEDIKIRQDSVTKLLTDVQLMKGKQECMDSKLLAIKHENEALWREVASLRQKHAQQQKVVNKLIQFLISLVQSNRILGVKRKIPLMLNDSGSAHSMPKYSRQFSLEHVHGSGPYSAPSPAYSSSSLYAPDAVASSGPIISDITELAPASPMASPGGSIDERPLSSSPLVRVKEEPPSPPQSPRVEEASPGRPSSVDTLLSPTALIDSILRESEPAPASVTALTDARGHTDTEGRPPSPPPTSTPEKCLSVACLDKNELSDHLDAMDSNLDNLQTMLSSHGFSVDTSALLDLFSPSVTVPDMSLPDLDSSLASIQELLSPQEPPRPPEAENSSPDSGKQLVHYTAQPLFLLDPGSVDTGSNDLPVLFELGEGSYFSEGDGFAEDPTISLLTGSEPPKAKDPTVS
notes: human heat shock transcription factor 1 (HSF1) with M161I in LZ1-3; Found by random mutagenesis in E. coli XL-1 Red; also called M161I mutant; source: S. cerevisiae PS145, mutant of plasmid pRS423GPD-hHSF1, in total protein extract
B2: human HSF1 H179Y, expressed in yeast (natural protein, UniProt Q00613 1-529, looked up)
chain: B1 chain with I161M, H179Y
notes: human heat shock transcription factor 1 (HSF1) with H179Y between LZ1/2 and LZ3; Found by random mutagenesis in E. coli XL-1 Red; also called H179Y mutant; source: S. cerevisiae PS145, mutant of plasmid pRS423GPD-hHSF1, in total protein extract
B3: human HSF1 L402P, expressed in yeast (natural protein, UniProt Q00613 1-529, looked up)
chain: B1 chain with I161M, L402P
notes: human heat shock transcription factor 1 (HSF1) with L402P in LZ4; Found by random mutagenesis in E. coli XL-1 Red; also called L402P mutant; source: S. cerevisiae PS145, mutant of plasmid pRS423GPD-hHSF1, in total protein extract
B4: human HSF1 L189P, expressed in yeast (natural protein, UniProt Q00613 1-529, looked up)
chain: B1 chain with I161M, L189P
notes: human heat shock transcription factor 1 (HSF1) with L189P in LZ3; Found by random mutagenesis in E. coli XL-1 Red; also called L189P HSF1 mutant; source: S. cerevisiae PS145, mutant of plasmid pRS423GPD-hHSF1, in total protein extract
B5: human HSF1 K178E, expressed in yeast (natural protein, UniProt Q00613 1-529, looked up)
chain: B1 chain with I161M, K178E
notes: human heat shock transcription factor 1 (HSF1) with K178E between LZ1/2 and LZ3; Found by random mutagenesis in E. coli XL-1 Red; also called K178E mutant; source: S. cerevisiae PS145, mutant of plasmid pRS423GPD-hHSF1, in total protein extract
B6: human HSF1 H179Y, expressed in hsf1-/- mouse embryonic fibroblasts (natural protein, UniProt Q00613 1-529, looked up)
chain: B1 chain with I161M, H179Y
notes: human heat shock transcription factor 1 (HSF1) with H179Y between LZ1/2 and LZ3; also called H179Y mutant; source: hsf1-/- MEFs, transfected, in protein extract
B7: human HSF1 L189P, expressed in hsf1-/- mouse embryonic fibroblasts (natural protein, UniProt Q00613 1-529, looked up)
chain: B1 chain with I161M, L189P
notes: human heat shock transcription factor 1 (HSF1) with L189P in LZ3; also called L189P HSF1 mutant; source: hsf1-/- MEFs, transfected, in protein extract
B8: human HSF1 L402P, expressed in hsf1-/- mouse embryonic fibroblasts (natural protein, UniProt Q00613 1-529, looked up)
chain: B1 chain with I161M, L402P
notes: human heat shock transcription factor 1 (HSF1) with L402P in LZ4; also called L402P mutant; source: hsf1-/- MEFs, transfected, in protein extract
B9: human HSF1 K178E, expressed in hsf1-/- mouse embryonic fibroblasts (natural protein, UniProt Q00613 1-529, looked up)
chain: B1 chain with I161M, K178E
notes: human heat shock transcription factor 1 (HSF1) with K178E between LZ1/2 and LZ3; also called K178E mutant; source: hsf1-/- MEFs, transfected, in protein extract
B10: human HSF1 M161I, expressed in hsf1-/- mouse embryonic fibroblasts (natural protein, UniProt Q00613 1-529, looked up)
chain: B1 chain
notes: human heat shock transcription factor 1 (HSF1) with M161I in LZ1-3; also called M161I mutant; source: hsf1-/- MEFs, transfected, in protein extract

target: wild-type human HSF1, expressed in hsf1-/- mouse embryonic fibroblasts (human) (UniProt Q00613); assay: cross-linking; EGS cross-linking of extracts of transfected hsf1-/- MEFs, without stress and after heat stress; immunoblot for HSF1

Row | Molecule | stoichiometry N
1 | wild-type human HSF1, expressed in hsf1-/- mouse embryonic fibroblasts (from UniProt Q00613 1-529) (natural protein) | 3

Target: the molecule itself
Assay: cross-linking; EGS cross-linking of total protein extracts of yeast PS145 grown on galactose medium; SDS-PAGE and immunoblot with an HSF1-specific antibody

Row | Molecule | stoichiometry N
2 | B1 | 3
3 | B2 | 3
4 | B3 | 3
5 | B4 | 3
6 | B5 | 3

Target: the molecule itself
Assay: cross-linking; EGS cross-linking of extracts of transfected hsf1-/- MEFs, without stress and after heat stress; immunoblot for HSF1

Row | Molecule | stoichiometry N
7 | B6 | 3
8 | B7 | 3
9 | B8 | 3
10 | B9 | 3
11 | B10 | 3
